Source: the DeepSol protein solubility set

Assay: soluble on expression in E. coli; label from the status in PepcDB or PDB records

Sequence	soluble on expression in E. coli
MGSDKIHHHHHHMKQKTIHIENLSIGYLGKTDVKVVADRINAGINCGELTCLLGANGVGKSTLLRTLSAFQPKLGGKIEIVGKEIDAYTDKELSTVISVVLTEKCDIRNMTVHELVGLGRSPYTDFWGTLRGEDKEVVERSIALVKIQNLAHRMVHTLSDGERQKVMIAKALAQETPVIFLDEPTAFLDFPSKVEMMQLLHRLSRQTNKTIFLSTHDLELALQIADKIWLMDKMNGVTIGTPEDLSLSGKLSSFFARKGIVFDLETGLFRVDNEYTSQIRLVGHGQKYAMVRKALQRNGILANRTVESDTYIETGDLKDGNGFILHPQEGEAVTLNSIEELLERLQAGSAERAV	not soluble
ISEFGSCPPGQFRCSEPPGAHGECYPQDWLCDGHPDCDDGRDEWGCG	soluble
IFSEINIDPTKRVLLYAPTWKTNSSDDDIFPINEQLLKHYNVIYKGHVESKNDLVPEGVIIPPNNIETQDLIIISDVVLTDYSSIIFDALTVDKKGCLYTPNHSQYVEERGVYQDVMDTLKPIWYTDAELLINDLITDSIPQLNNKYTNKNNQSFEYISKLISN	not soluble
MDTPRPQLLDFQFHQNNDSFTLHFQQRLILTHNKDNPCLWIGSGIADIDMFRGNFSIKDKLQEKIALTDAIVSQSPDGWLIHFSRGSDISATLNISADDQGRLLLELQNDNLNHNRIWLRLAAQPEDHIYGCGEQFSYFDLRGKPFPLWTSEQGVGRNKQTYVTWQADCKENAGGDYYWTFFPQPTFVSTQKYYCHVDNSCYMNFDFSAPEYHELALWEDKATLRFECADTYISLLEKLTALLGRQPELPDWIYDGVTLGIQGGTEVCQKKLDTMRNAGVKVNGIWAQDWSGIRITSFGKRVMWNWKWNSENYPQLDSRIKQWYQEGVQFLAYINPYVASDKDLCEEAAQHGYLAKDASGGDYLVEFGEFYGGVVDLTNPEAYAWFKEVIKKNMIELGCGGWMADFGEYLPTDTYLHNGVSAEIMHNAWPALWAKCNYEALEETGKLGEILFFMRAGSTGSQKYSTMMWAGDQNVDWSLDDGLASVVPAALSLAMTGHGLHHSDIGGYTTLFEMKRSKELLLRWCDFSAFTPMMRTHEGNRPGDNWQFDGDAETIAHFARMTTVFTTLKPYLKEAVALNAKSGLPVMRPLFLHYEDDAHTYSLKYQYLLGRDILVAPVHEEGRSDWTLYLPEDNWVHAWTGEAFRGGEVTVNAPIGKPPVFYRADSEWAALFASLNSI	not soluble
MGGSHHHHHHGMASSSNVPADMINLRLILVSGKTKEFLFSPNDSASDIAKHVYDNWPMDWEEEQVSSPNILRLIYQGRFLHGNVTLGALKLPFGKTTVMHLVARETLPEPNSQGQRNREKTGESNCCVIL	not soluble
MAHHHHHHMGTLEAQTQGPGSMKLAINGFGRIGRNVFKIAFERGIDIVAINDLTDPKTLAHLLKYDSTFGVYNKKVESRDGAIVVDGREIKIIAERDPKNLPWAKLGIDVVIESTGVFSSATSDKGGYLDHVNHAGAKKVILTVPAKDEIKTIVLGVNDHDINSDLKAVSNASCTTNCLAPLAKVLHESFGIEQGLMTTVHAYTNDQRILDLPHSDLRRARAAALSIIPTSTGAAKAVGLVLPELKGKLNGTSMRVPVPTGSIVDLTVQLKKKDVTKEEINSVLRKASETPELKGILGYTEDPIVSSDIKGNSHSSIVDGLETMVLENGFAKILSWYDNEFGYSTRVVDLAQKLVK	soluble
SGQKVTGGIKTVDMRDPTYRPLKQELQGLDYCKPTRLDLLLDMPPVSYDVQLLHSWNNNDRSLNVFVKEDDKLIFHRHPVAQSTDAIRGKVGYTRGLHVWQITWAMRQRGTHAVVGVATADAPLHSVGYTTLVGNNHESWGWDLGRNRLYHDGKNQPSKTYPAFLEPDETFIVPDSFLVALDMDDGTLSFIVDGQYMGVAFRGLKGKKLYPVVSAVWGHCEIRMRYLNGLDPEPLPLMDLCRRSVRLALGRERLGEIHTLPLPASLKAYLLYQ	soluble
MSLSTFRSIEWKKDKLVLLDQRYLPEKTLYLELKTVDEVARAIKEMTVRGAPAIGVAAAYGMVLCVQKLSKNDDLIRELQKADDLLRASRPTAVNLFWALDRMKKIWQGFNGSLEDLKMILEKEATDIEREDVEINKQIAKNGVELVPFGAKIIHHCNTGSLATVDYGTALGVIRYAHEIGKKIHVFLDETRPRLQGARLSAWEMKELGIPHTIIVDGASGLVMKKFKIDLALVGADRIAANGDTANKIGTYNLAIVAKYHNVPLYVVAPTSTIDLKTPAGQDIPIEERSADEIRCVGNSQVAPQESPVFNPAFDVTPAELISGIITEKGIVYPPFKENLRKLFESAEGHHHHHH	soluble
MGSDKIHHHHHHMEHECDTLPHWLTGSPQGEAGHTPAACNSAVAAQPAYPAGTRQPEKSAHAAEASRAHDRTATGVAPTGFLTLFTEEEIGTPSPAARRAAPVISPLVRFGSAQDRIEFVRQRIRQLGFDSFSYSATRTSAHHKTMFVLTSYESRSWLTRYFRERYFELDPRVALASPTGLPFLWNTADMRADLPRAQMRSERLGGLIDMLEATGRKSGILTQMPLPEPELSASLCFNSETGNPRWMTESIVAETLMFAHMIHEFIWTHAKSVIGIAPAQQQRVTLSELQHAVLRAVVQGQRDKEIAYFLGLSPHNVDYHLRRLRQLFNVRNRVQLINVAQAYVS	not soluble
MIDLRKLTEVQRRLSRKIVEKPIDIAKVKRVGAVDVSYKNNFAKAAFVCVEFPSGEIIKTKTIVTTVEFPYIPTFFFLRETKPILLAVKDENFDVLLVEGHGKAHPRRYGLASHIGVILSKPTIGVAKRLLRGVSKDTYVKVGKAFVSVGNLITLNDAVRIVEKLLDENGYPKPLNIADKLSKRGESREKELEHHHHHH	not soluble
MSLSFYERYLEYKNFDFENFFDQVTDRDIINIINKDRRLSELEFLMLLSKKAVKYLEPLAQKANRITVQNFGKVIFLYTPMYLANYCVNQCIYCGFNITNNIKRRKLTLDEVEKEAYAISSTGLRHILILTGESRKESPVQYIKDCVKILQKYFRSISIEVYPLEENEYAELIEAGVDGLTIYQEVYDEEKYKALHLKGPKRNYLYRLDAPERACKASMRNVNIGALLGLHDWRTEAFYTGLHADYLQNKYPDVEIGLSLPRIRPHPCGSFVPDCKVEDRDLVQIMIAYRLFMPRAGIAISTRERESLRNNLIGLGVTKMSAASSTEVGGHTLGDKSDGQFDVNDRRGVEEMRQMIYSKGYQPVFKDWQAEGHHHHHH	soluble
LLIGFWDCVTCHGSPVDICTAKPRDIPMNPMCIYRSPEKKATEDEGSEQKIPEATNRRVWELSKANSRFATTFYQHLADSKNDNDNIFLSPLSISTAFAMTKLGACNDTLQQLMEVFKFDTISEKTSDQIHFFFAKLNCRLYRKANKASKLVSANRLFGDKSLTFNETYQDISELVYGAKLQPLDFKENAEQSRAAINKWVSNKTEGRITDVIPSEAINELTVLVLVNTIYFKGLWKSKFSPENTRKELFYKADGESCSASMMYQEGKFRYRRVAEGTQVLELPFKGDDITMVLILPKPEKSLAKVEKELTPEVLQEWLDELEEMMLVVHMPRFRIEDGFSLKEQLQDMGLVDLFSPAASALPGIVAEGRDDLYVSDAFHKAFLEVNEEGSEAAASTAVVIAGRSLNPNRVTFKANRPFLVFIREVPLNTIIFMGRVANPCVK	soluble
MGSDKIHHHHHHMGKTIAIMQPYFLPYIGYWQLMKASDIFVVYDNIKYTKKGWVNRNRYLSNGKIKLFSIPLMKASNSLQIKDRYLAETYKLESAKTLRKIKDAYAVSKNFHPCFNLIERCFNANENNLFEFIYNSVAIFKDVLGLRAQLVVSSSIACDHSLNSAERVKAICTELGAESYINPVGGEHLYERDDFQKLGINLRFLKPRIEEYPQLSCQFQPYMSILDICMSCTFDEVKNNII	not soluble
GPGSMHDLPEGFEFMEHKVVNKDIHAPHENLETLRLTLTRQDEFLLREEPVKCVTVTGTNGEYGIYPGHAYKIVQLNPSPLTVEYTDGTTKKYFVSGGFAHINNEGSCDVNTVECTLLDDLDLAIAEKELAAQQAALGSAKDDKAKSVVEIRISVIEAVIAALKHH	soluble
MAHHHHHHMLSLPRDHHYHAHHSGTEFVPFDQVIGITPDGVPVISNGNEFHFSNLESVTPSYQALCSSVRKAPVIVPCTKLGAKWQCVEFARRYLASRKAVWTASMPIAADMLRAEPPFVHVQDSTPVEFTRTPNRSHGPAPAMSDIIVWDQSEETPLGHVAVVTEVLPEAVRVAEQNQGFERWPQGMLYSREISMQRSSAGTVELVDEDSVLGWVTLQCPYYDFRDGDLADKFRIATGPGCIVRQPFPKHVELPWVQPEERCDFYLKRSLAIGGNVGDDARAEECDVPSAFFFYFLDY	not soluble
MSLYVKMMEMGRMIDNCLYCGSATLLSIIHLANGKNAVTCGKCGLTRTIPVPSAEYSEVAEYFENYLLKEKLFRAFSRKLLDFVLSVVQNGRLLEVGCSVGFFLEEAKRAGFSVNGVELNEKAATLSKGKDFDVRNCMLREAGFPSHEFDVVVMSHVLEHIQDLREFLADIKVLLRPGGKVIVSQPTPDGIVPKMQKKKWYGWVPNEHVWHFTPKTLSLVFAENGFDVVKVERNSMYYSLWPSSLRGILVALVARTAAVLGLGDQFYLAATVSEKDSEGHHHHHH	not soluble
MFPMNYSLIDLSAIECPESDLFIEGVVLAANLATRPLDPEQWLPELFTEQHQALLQPVTEQIHRQYQLLKGNGYDLLALLAEHAPSRKQGLADFAEGFMQLWPQVEPMWQQGAFADGSIRMLQALLTTLMLAIDEAQTQAQMREAGYEQVPALADLIEQLNLMVHEVALAADEAMLGAKAQSVNPFKGIGRNDACPCDSGKKFKQCCGQ	not soluble
MGSDKIHHHHHHMGEVYEKNNIDFDSIAKMLLIKYKDFILSKFKKAAPVENIRFQNLVHTNQFAQGVLGQSQHLCTVYDNPSWHSIVLETLDLDLIYKNVDKEFAKDGHAEGENIYTDYLVKELLRYFKQDFFKWCNKPDCNHCGQNTSENMTPLGSQGPNGEESKFNCGTVEIYKCNRCGNITRFPRYNDPIKLLETRKGRCGEWCNLFTLILKSFGLDVRYVWNREDHVWCEYFSNFLNRWVHVDSCEQSFDQPYIYSINWNKKMSYCIAFGKDGVVDVSKRYILQNELPRDQIKEEDLKFLCQFITKRLRYSLNDDEIYQLACRDEQEQIELIRGKTQETKSESVSAASKSSNRGRESGSADWKAQRGEDGK	not soluble
MGSDKIHHHHHHMAKSALRVLEIMEFVATHKAGCATHTEISQALGIPKSSLTALLTDLQRPGYLELDRETGRYAIGSQVMFLAHAYLRNLNIVRLGTPVVHDVFLKLNVYTTMVIPKGDMCLVVCSESLPSPLAHSLSIGQHIPMLHSALGRAILAFLEPEEVERFLHDYTPTPYTDRTKTGIEEVRKALAQVRKAGFAHMQGEYLPGIIGIAVPVFNLENRPIAAIGIGIPAVEGTTEFEKRICKQLLHSADTLSRRLGAKLKPTPSKLLRKGEEE	not soluble
MSWQTYVDDHLMCDIDGHRLTAAAIIGHDGSVWAQSSSFPQFKSDEVAAVMKDFDEPGSLAPTGLHLGGTKYMVIQGEPGAVIRGKKGSGGITVKRTGQALIIGIYDEPLTPGQCNMIVERLGDYLLDQGL	soluble
GMSENKKKFDKKGAKNMDEISKTLFAPIYPIIAENIINRFGITAGTCIDIGSGPGALSIALAKQSDFSIRALDFSKHMNEIALKNIADANLNDRIQIVQGDVHNIPIEDNYADLIVSRGSVFFWEDVATAFREIYRILKSGGKTYIGGGFGNKELRDSISAEMIRKNPDWKEFNRKNISQENVERFQNVLDEIGISSYEIILGDEGFWIIISKTDQEVI	soluble
MGNAKSTDSNPKKSVRRKSATTPSTSSSSRPSISSQGNRKPILSVNQRQIIKGCMDNSKDDLGERIFRRALERRDDFKQFIDNLSKGQRYENSQYLKQFLLGIVENIMDIDEINRISEEFGCNHVQFRANGFKPDFFACTADAVTTECTFLDQAAHPTSETAAAWSLLTSHVFSAVRDGYYAELRRQRKSSNAFRARVSVDVVSTGTDDGTSLSSATRRSNSPQEEIAESFDHHTVENNCVESSGNFLAPPTVY	not soluble
